Where no end group is shown, it is not given here.
How the values were obtained:
[1] = target: T1, anti-CD28 scFv (VH - linker 1 - VL) (biotinylated (site not stated)); test: phage ELISA; biotinylated anti-CD28 scFv on neutravidin plate, clonal phage supernatant, anti-M13-HRP detection;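 also: before phage addition, wells were pretreated with soluble CD28 protein in blocking buffer, or with blocking buffer only as the comparison, then phage were added without washing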
T1 sequence (scFv, as listed by the source): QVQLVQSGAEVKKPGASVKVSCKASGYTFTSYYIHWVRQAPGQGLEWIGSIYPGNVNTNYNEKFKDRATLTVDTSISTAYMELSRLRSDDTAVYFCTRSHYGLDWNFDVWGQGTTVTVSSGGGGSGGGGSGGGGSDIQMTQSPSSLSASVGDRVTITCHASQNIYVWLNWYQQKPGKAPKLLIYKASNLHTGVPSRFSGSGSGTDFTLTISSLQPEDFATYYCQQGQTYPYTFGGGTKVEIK

[2] = target: T1, anti-CD28 scFv (VH - linker 1 - VL); test: phage ELISA as above, wells pre-incubated with soluble CD28 (competitor);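 also: ELISA of crude clonal phage supernatants added to wells pre-treated with soluble CD28 in blocking buffer, bound phage read out with HRP-conjugated anti-M13 antibody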
Method: (§1) Clonal phage were harvested as crude supernatants and screened via standard enzyme linked immunosorbent assays (ELISAs). […] Prior to the addition of clonal phage, wells were incubated with blocking buffer and CD28 soluble protein or blocking buffer alone. Without washing or aspirating, clonal phage supernatants were then added to the wells and incubated for a short time. Wells were then washed followed by detection of bound phage using a horse radish peroxidase conjugated anti-M13 antibody.

[3] = target: T2, anti-CD28 scFv (VH - linker 1 - VL) (biotinylated (captured on neutravidin coated plates)); test: clonal phage ELISA on anti-CD28 scFv; wells pre-incubated with soluble CD28 (competitor);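 also: crude phage supernatants added to wells preloaded with blocking buffer plus soluble CD28, bound phage read with HRP-linked anti-M13 antibody, comparison wells received blocking buffer only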
T2 sequence (scFv, as listed by the source): as above
Method: as §1

[4] = target: T3, anti-CD28 scFv (VH - linker 1 - VL) (biotinylated (site not stated)); test: clonal phage ELISA; biotinylated anti-CD28 scFv on neutravidin plate, anti-M13-HRP detection;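 also: crude supernatants of phage clones were tested in wells pretreated with blocking buffer either alone or supplemented with soluble CD28 protein before phage addition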
T3 construct: Captured as biotinylated scFv on neutravidin coated plates in the clonal phage ELISA
T3 sequence (scFv, as listed by the source): as above

[5] = target: T2, anti-CD28 scFv (VH - linker 1 - VL); test: clonal phage ELISA; biotinylated anti-CD28 scFv on neutravidin plate, phage detected with anti-M13-HRP;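 also: crude clonal phage supernatants added to wells preincubated with blocking buffer alone or blocking buffer plus soluble CD28 protein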
Method: as §1

[6] = target: T4, Anti-CD28 scFv (VH - linker 1 - VL) (biotinylated (site not stated)); test: phage ELISA; biotinylated anti-CD28 scFv on neutravidin plate, wells pre-incubated with soluble CD28 (competitor), anti-M13-HRP detection;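 also: bound clonal phage detected by peroxidase-labelled anti-M13 antibody, compared against wells given blocking buffer alone without soluble CD28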
T4 construct: Biotinylated scFv captured on neutravidin coated plates in the panning ELISA
T4 sequence (scFv, as listed by the source): as above

[7] = target: T5, Anti-CD28 scFv (VH - linker 1 - VL) (biotinylated (site not stated)); test: phage ELISA as above, wells pre-incubated with soluble CD28 (competitor);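 also: ELISA of crude clonal phage supernatants added to wells pre-treated with soluble CD28 in blocking buffer, bound phage read out with HRP-conjugated anti-M13 antibody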
T5 construct: Captured as biotinylated scFv on neutravidin plates in the panning ELISA
T5 sequence (scFv, as listed by the source): as above

[8] = target: T6, anti-CD28 scFv (VH - linker 1 - VL) (biotinylated (site not given)); test: phage ELISA as before, wells pre-incubated with soluble CD28 (competitor)
T6 sequence (scFv, as listed by the source): as above

[9] = target: T6, anti-CD28 scFv (VH - linker 1 - VL); test: phage ELISA; biotinylated anti-CD28 scFv on neutravidin plate, clonal phage supernatant, anti-M13-HRP detection;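 also: before phage addition, wells were pretreated with soluble CD28 protein in blocking buffer, or with blocking buffer only as the comparison, then phage were added without washing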
[10] = target: anti-CD28 scFv (VH - linker 1 - VL) (biotinylated (site not stated)); test: phage ELISA; biotinylated anti-CD28 scFv on neutravidin plate, clonal phage supernatant, anti-M13-HRP;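 also: before the phage were added, wells were pre-incubated with soluble CD28 protein in blocking buffer, or with blocking buffer alone, and were not washed in between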
Target sequence in this assay (scFv, as listed by the source): as above

| Binder | CD28 scFv signal in presence of CD28 [3] | CD28 scFv signal [5] | also measured |
| --- | --- | --- | --- |
| MNWCPSHLWHMCYF (peptide, not shown: large carriers, cysteine pairing not given here; also: displayed as fusion to phage pIII, linker and pIII sequence not given here, Clonal phage of the Peptide-9 library) [Phage-171] | – | – | CD28 scFv signal [1]: 0.702; CD28 scFv signal in presence of CD28 [2]: 0.192 |
| MDWCPRDLWNLCFF [Phage-236] | 0.436 | – | – |
| MDWCPRNMWTVCFL (tested as crude clonal phage supernatant) [Phage-211] | – | – | CD28 scFv signal [4]: 1.12 |
| MTWCPTSFWNRCLD [Phage-233] | 0.405 | 0.392 | – |
| MDWCPKHLWTECFA [Phage-242] | 0.145 | 2.49 | – |
| MDWCPLYLWAECFN (tested as crude phage supernatant) [Phage-298] | – | – | CD28 scFv signal in presence of CD28 [6]: 0.193 |
| MDWCPRHLWTECFS (tested as crude phage supernatant) [Phage-297] | – | – | CD28 scFv signal in presence of CD28 [6]: 0.243 |
| MDWCPRDRWIDCFN [Phage-226] | 0.131 | 0.339 | – |
| MDWCPRDRWSDCFN [Phage-227] | 0.074 | 0.102 | – |
| MDWCPPYLWSECFA [Phage-238] | 0.234 | 2.6 | – |
| MDWCPKHLWNKCFN [Phage-246] | 0.092 | 1.16 | – |
| MDWCPKVMWHYCFA [Phage-250] | 0.252 | 1.14 | – |
| MDWCPKFLWDLCFA (peptide, not shown: large carriers, Clonal phage of the Peptide-9 library) [Phage-164] | – | – | CD28 scFv signal [1]: 1.07; CD28 scFv signal in presence of CD28 [2]: 0.139 |
| MDWCPRNMWHHCFD [Phage-248] | 0.524 | 1.6 | – |
| LHWCPTSMWTYCYY [Phage-392] | – | – | CD28 scFv signal in presence of CD28 [7]: 2.46 |
| MDWCPKDRWNDCYF [Phage-224] | – | 1.09 | – |
| MDWCPRYLWHECFS [Phage-235] | 0.303 | 2.65 | – |
| MDWCPRYLWHECFD [Phage-244] | 0.177 | 2.07 | – |
| MDWCPRYLWHVCFN [Phage-239] | 0.409 | 2.6 | – |
| MDWCPRTLWHVCFN [Phage-240] | 0.551 | 2.6 | – |
| IDWCPMHMWDFCYN [Phage-390] | – | – | CD28 scFv signal in presence of CD28 [7]: 0.232 |
| MNWCPTDLWHECFN (peptide, not shown: large carriers, Clonal phage of the Peptide-9 library) [Phage-162] | – | – | CD28 scFv signal [1]: 1.09; CD28 scFv signal in presence of CD28 [2]: 0.095 |
| MDWCPRHLWHECYS [Phage-241] | 0.374 | 2.58 | – |

| Binder | CD28 scFv signal in presence of CD28 [3] | CD28 scFv signal [5] | also measured |
| --- | --- | --- | --- |
| MDWCARFVGYGCLD [Phage-232] | 0.074 | 0.065 | – |
| MNWCPTALWHVCFN (tested as crude clonal phage supernatant; not shown: pIII of the bacteriophage to which the peptide is fused) [Phage-67, clonal phage peptide MNWCPTALWHVCFN] | – | – | CD28 scFv signal in presence of CD28 [8]: 0.169; CD28 scFv signal [9]: 1.64 |
| MDWCPRHLWYECFN [Phage-243] | 0.167 | 2.41 | – |
| VPWCQIISGLECLT [Phage-229] | 0.077 | 0.174 | – |
| APWCQIISGLECLT [Phage-230] | 0.078 | 0.169 | – |
| MDWCPRFMWAECFN [Phage-247] | 0.341 | 2.6 | – |
| VPWCLIISGLDCLN (also called VPWCLIISGLDCIN (so in the source)) [Phage-231] | 0.09 | 0.107 | – |
| MDWCPRNLWHLCFA [Phage-245] | 0.164 | 1.4 | – |
| MSWCPQDLWHVCFN (peptide, not shown: large carriers, cysteine pairing not given here; also: displayed as fusion to phage pIII, linker and pIII sequence not given here, Clonal phage of the Peptide-9 library) [Phage-167] | – | – | CD28 scFv signal [1]: 0.86; CD28 scFv signal in presence of CD28 [2]: 0.112 |
| MDWCPRYLWNECFY (tested as crude clonal phage supernatant; not shown: pIII of the bacteriophage to which the peptide is fused) [Phage-66, clonal phage peptide MDWCPRYLWNECFY] | – | – | CD28 scFv signal in presence of CD28 [8]: 0.358; CD28 scFv signal [9]: 2.54 |
| MDWCPSYLWHECFF [Phage-237] | 0.447 | 2.61 | – |
| MDWCPRYLWNVCFA (tested as crude phage supernatant) [Phage-289] | – | – | CD28 scFv signal in presence of CD28 [6]: 0.28 |
| MFWCPRYLWHECFN (peptide, not shown: large carriers, Clonal phage of the Peptide-9 library) [Phage-163] | – | – | CD28 scFv signal [1]: 1.08; CD28 scFv signal in presence of CD28 [2]: 0.175 |
| MDWCPPHLWHECFF [Phage-358 clonal phage peptide MDWCPPHLWHECFF] | – | – | CD28 scFv signal [10]: 1.45 |
| MDWCPSDMWAHCYN [Phage-249] | 0.109 | 1.21 | – |
| MDWCPFYLWDECFL (peptide, not shown: large carriers, Clonal phage of the Peptide-9 library) [Phage-165] | – | – | CD28 scFv signal [1]: 1.02; CD28 scFv signal in presence of CD28 [2]: 0.141 |
| MDWCPRALWFECFF [Phage-234] | 0.331 | 2.67 | – |
| MDWCPMYMWYECFA (tested as crude clonal phage supernatant; not shown: pIII of the bacteriophage to which the peptide is fused) [Phage-68, clonal phage peptide MDWCPMYMWYECFA] | – | – | CD28 scFv signal in presence of CD28 [8]: 0.358; CD28 scFv signal [9]: 2.48 |
| MDWCPRDRWVDCFF [Phage-223] | 0.14 | 1.58 | – |
| MDWCPRDRWADCFF [Phage-225] | 0.089 | 0.392 | – |
| MNWCPSDLWHLCFN (peptide, not shown: large carriers, cysteine pairing not given here; also: displayed as fusion to phage pIII, linker and pIII sequence not given here, Clonal phage of the Peptide-9 library) [Phage-170] | – | – | CD28 scFv signal [1]: 0.739; CD28 scFv signal in presence of CD28 [2]: 0.131 |
| MDWCPKDLWHECFN (peptide, not shown: large carriers, cysteine pairing not given here; also: displayed as fusion to phage pIII, linker and pIII sequence not given here, Clonal phage of the Peptide-9 library) [Phage-168] | – | – | CD28 scFv signal [1]: 0.762; CD28 scFv signal in presence of CD28 [2]: 0.1 |
| ITWCHVISGLECWN [Phage-228] | 0.1 | 0.193 | – |
